Experiment [1] deals with Recombinant FGFR4 (G&P Biosciences) (human) (UniProt P22455). Kind of experiment: SPR (BIAcore T200), single cycle kinetics, FGFR4 amine-immobilised (12'000 RU), negative control nanobody as analyte, heterogeneous ligand model, component 1 (KD1).
Experiment [2] has the same target. Nature of the experiment: SPR (BIAcore T200), single cycle kinetics, FGFR4 amine-immobilised (12'000 RU), negative control nanobody as analyte, heterogeneous ligand model, component 2 (kon2).
For experiment [3] the target is unchanged. Kind of experiment: SPR (BIAcore T200), single cycle kinetics, FGFR4 amine-immobilised (12'000 RU), negative control nanobody as analyte, heterogeneous ligand model, component 2 (koff2).
For experiment [4] the target is unchanged. Kind of experiment: SPR (BIAcore T200), single cycle kinetics, FGFR4 amine-immobilised (12'000 RU), negative control nanobody as analyte, heterogeneous ligand model, component 1 (kon1).
Experiment [5] shares this target. Nature of the experiment: SPR (BIAcore T200), single cycle kinetics, FGFR4 amine-immobilised (12'000 RU), negative control nanobody as analyte, heterogeneous ligand model, component 2 (KD2).
Experiment [6] addresses FGFR4 expressed on the surface of RMS cells (Rh4-FR4 wt, Rh30) (human) (UniProt P22455). Kind of experiment: flow cytometry, recombinant nanobody at 30 µg/ml on Rh4-FR4 wt cells, anti-6xHis-FITC detection; equals the background of the secondary antibody alone.
Experiment [7] addresses Recombinant FGFR4 (G&P Biosciences) (human) (UniProt P22455). Nature of the experiment: SPR (BIAcore T200), single cycle kinetics, FGFR4 amine-immobilised (12'000 RU), negative control nanobody as analyte, heterogeneous ligand model, component 1 (koff1).

Recombinant FGFR4 (G&P Biosciences) (human), sequence (P22455 22-369 limits assumed): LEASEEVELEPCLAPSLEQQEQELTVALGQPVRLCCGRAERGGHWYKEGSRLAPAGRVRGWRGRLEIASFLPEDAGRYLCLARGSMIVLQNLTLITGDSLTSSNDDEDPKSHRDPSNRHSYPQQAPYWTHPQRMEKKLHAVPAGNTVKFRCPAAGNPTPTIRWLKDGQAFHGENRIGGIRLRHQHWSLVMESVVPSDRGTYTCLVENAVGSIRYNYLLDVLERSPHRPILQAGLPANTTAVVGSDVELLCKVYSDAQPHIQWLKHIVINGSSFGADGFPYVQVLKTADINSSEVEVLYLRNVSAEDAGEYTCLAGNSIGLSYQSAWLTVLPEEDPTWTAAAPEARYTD
FGFR4 expressed on the surface of RMS cells (Rh4-FR4 wt, Rh30) (human), sequence (P22455 22-802 limits assumed): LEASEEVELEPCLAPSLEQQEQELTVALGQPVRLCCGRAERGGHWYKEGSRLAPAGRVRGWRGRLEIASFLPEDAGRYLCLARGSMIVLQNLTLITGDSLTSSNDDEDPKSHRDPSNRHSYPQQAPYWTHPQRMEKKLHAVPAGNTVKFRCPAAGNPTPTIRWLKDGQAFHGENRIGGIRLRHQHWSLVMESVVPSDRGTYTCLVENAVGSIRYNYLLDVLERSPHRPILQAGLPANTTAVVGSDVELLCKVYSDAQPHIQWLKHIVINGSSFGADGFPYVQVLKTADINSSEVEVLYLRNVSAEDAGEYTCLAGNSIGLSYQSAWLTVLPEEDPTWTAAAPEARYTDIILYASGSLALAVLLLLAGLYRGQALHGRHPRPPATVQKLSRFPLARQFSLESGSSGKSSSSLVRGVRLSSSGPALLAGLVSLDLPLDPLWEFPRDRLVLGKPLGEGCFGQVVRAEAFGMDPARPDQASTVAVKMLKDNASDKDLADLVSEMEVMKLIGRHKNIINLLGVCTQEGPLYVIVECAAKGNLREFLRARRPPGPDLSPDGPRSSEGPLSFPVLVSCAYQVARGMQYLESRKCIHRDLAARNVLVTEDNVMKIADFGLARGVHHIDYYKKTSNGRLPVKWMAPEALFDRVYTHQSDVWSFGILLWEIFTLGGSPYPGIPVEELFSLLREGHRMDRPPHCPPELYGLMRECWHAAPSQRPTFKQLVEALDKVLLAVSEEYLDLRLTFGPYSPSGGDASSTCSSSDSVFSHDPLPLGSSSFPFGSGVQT

Take “anti-mCherry nanobody (negative control) (VHH)”: the Kd was determined as 1960 nM in experiment [1] and 2180 nM in experiment [5]. For the same substance, the kon in experiment [2] stood at 2320 M⁻¹ s⁻¹; in experiment [4] it was 2600 M⁻¹ s⁻¹. Moreover, the results for the off-rate (koff) in experiment [3] and in experiment [7] were 0.00505 s⁻¹ and 0.00511 s⁻¹, respectively. In addition, the median fluorescence intensity (MFI) in experiment [6] was 200 MFI.
